Data: patent publication US20230088052A1 (JIANGSU HENGRUI PHARMACEUTICALS, published 2023)
Numbering of substitutions follows the chain as printed.

T1: his-tagged mouse IL-4R recombinant protein (m-IL-4R-his) (mouse, UniProt P16382 26-233)
T1 construct: range 26-233; also called Murine IL-4R-his; not shown: his tag
T1 sequence (looked up): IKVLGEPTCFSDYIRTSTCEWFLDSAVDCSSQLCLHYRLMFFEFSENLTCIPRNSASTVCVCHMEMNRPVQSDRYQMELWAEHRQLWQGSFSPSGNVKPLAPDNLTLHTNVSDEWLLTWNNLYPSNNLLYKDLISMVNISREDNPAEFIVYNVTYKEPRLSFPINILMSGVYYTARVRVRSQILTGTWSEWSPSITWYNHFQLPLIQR

B1: human-murine chimeric antibody 25G7-C (antibody, V domains shown)
VH: EVQLVESGGGLVKPGGSLKLSCAASGFTFSDYGMHWVRQAPEKGLEWVAFISSGSSIIYYADIVKGRSTISRDNAKNTLFLQMTSLRSEDTAMYYCTRGNKRGFFDYWGQGTILTVSS
VL: QIVLTQSPALMSASPGEKVTMTCNASSSVSYMYWYQRKPRSSPKPWIYLTSNLASGVPVRFSGSGSGTSYSLTISSMEAEDAATYYCQQWRSNPPMLTFGSGTKLEVK
notes: Expressed in HEK293 cells
B2: humanized antibody hu25G7 (antibody, human IgG4 S228P, kappa, V domains shown)
VH: B1 VH with K13Q, K19R, E42G, T78S, F80Y, T84N, S88A, M93V, I113L, L114V
VL: EIVLTQSPATLSLSPGERATLSCNASSSVSYMYWYQQKPGQAPRLLIYLTSNLASGIPARFSGSGSGTDFTLTISSLEPEDFAVYYCQQWRSNPPMLTFGGGTKVEIKR
notes: Uses the VH-c heavy chain and the VL-a light chain; also called wild-type hu25G7
B3: human-murine chimeric antibody 7B10-C (antibody, V domains shown)
VH: QVQLQQPGTELLKPGASVSLSCKASGYTFTSYWMHWVKQRPGQGLEWIGLIHPNSDTTKFSENFKTRATLTIDKSSSTAYMKLSSLTSEDSAVYYCAKSKIITTIVARHWYFDVWGTGTTVTVSS
VL: DIVLTQSPPSLAVSLGQRATISCKASQSVDYGGDSYMNWYQQKLGQPPKVLIYAASNLESGIPARFSGSGSGTDFTLNIHPVEEEDVATYYCQHSNENPPTFGGGTKLEIK
notes: Expressed in HEK293 cells
B4: humanized antibody hu7B10 (antibody, human IgG1, kappa, V domains shown)
VH: EVQLVQSGAEVKKPGASVKVSCKASGYTFTSYWMHWVRQAPGQGLEWMGLIHPNSDTTKFSENFKTRVTMTIDTSISTAYMELSRLRSDDTAVYYCAKSKIITTIVARHWYFDVWGQGTTVTVSS
VL: DIVLTQTPLSLSVTPGQPASISCKASQSVDYGGDSYMNWYLQKPGQPPQLLIYAASNLESGVPDRFSGSGSGTDFTLKISRVEAEDVGVYYCQHSNENPPTFGGGTKVEIKR
notes: Uses the VH-b heavy chain and the VL-b light chain
B5: murine monoclonal antibody 25G7 (antibody, V domains shown)
VH: B1 VH
VL: B1 VL
notes: also called hybridoma 25G7
B6: murine monoclonal antibody 7B10 (antibody, V domains shown)
VH: B3 VH
VL: B3 VL
notes: also called hybridoma 7B10
B7: Dupilumab (antibody, V domains shown)
VH: EVQLVESGGGLEQPGGSLRLSCAGSGFTFRDYAMTWVRQAPGKGLEWVSSISGSGGNTYYADSVKGRFTISRDNSKNTLYLQMNSLRAEDTAVYYCAKDRLSITIRPRYYGLDVWGQGTTVTVSS
VL: DIVMTQSPLSLPVTPGEPASISCRSSQSLLYSIGYNYLDWYLQKSGQSPQLLIYLGSNRASGVPDRFSGSGSGTDFTLKISRVEAEDVGFYYCMQALQTPYTFGQGTKLEIKR
B8: hu25G7-A antibody (antibody, human IgG4 S228P, kappa, V domains shown)
VH: B1 VH with K13Q, K19R, E42G, F80Y, T84N, S88A, M93V, I113L, L114V
VL: B2 VL with N24R, S30P, S92A, N93Y
B9: hu25G7-B antibody (antibody, human IgG4 S228P, kappa, V domains shown)
VH: B1 VH with K13Q, K19R, E42G, F80Y, T84N, S88A, M93V, I113L, L114V
VL: EIVLTQSPATLSLSPGERATLSCRASPGVPPLAWYQQKPGQAPRLLIYLASSRPSGIPARFSGSGSGTDFTLTISSLEPEDFAVYYCQQWRSNPPMLTFGGGTKVEIKR

What follows are binders tested against T2, his-tagged human IL-4R recombinant protein (h-IL-4R-his) (human, UniProt P24394 26-232) (assay: Biacore SPR: antibody captured, IL-4R antigen in flow, 1:1 model).
T2 construct: range 26-232; Made by Acrobiosystems in HEK293; also called Human IL-4R-his; not shown: his tag
Description: Human antibody capture antibody was covalently coupled to a biosensor chip CMS of Biacore instrument (Biacore X100, GE) according to the method described in the instruction of human antibody capture kit (Cat #BR-1008-39, GE), and thus a certain amount of antibodies to be tested were captured based on affinity. Then a series of concentration gradients of IL-4R antigens (the IL-4R antigens all purchased from Acrobiosystems, Cat #ILR-H5221) flowed through the surface of chip, and the Biacore instrument (Biacore X100, GE) was used to detect the reaction signals in real time to obtain the binding and dissociation curves. After each cycle of dissociation was completed, the biochip was washed and regenerated with a regeneration solution prepared in the human antibody capture kit. The amino coupling kit used in the experiment was purchased from GE corporation (Cat #BR-1000-50, GE), and the buffer was HBS-EP+ 10× buffer solution (Cat #BR-1006-69, GE) diluted to 1× (pH 7.4) with D.I. Water.
The data obtained from the experiment were fitted with BiacoreX100 evaluation software 2.0 GE software with a (1:1) binding model to obtain affinity values.

| Binder | Kd |
| --- | --- |
| B1 | 0.725 nM |
| B2 | 1.07 nM |
| B3 | 0.278 nM |
| B4 | 0.284 nM |

What follows are binders tested against T1, his-tagged mouse IL-4R recombinant … (assay: ELISA, IL-4R-his coated on the plate).

| Binder | binding result |
| --- | --- |
| B5 | no binding |
| B6 | no binding |

These binders were tested against T3, human IL-4R on cells (HEK-Blue IL-4 cells, TF-1 cells) (human, UniProt P24394 26-825) (assay: cell-based or functional assay).

| Binder | Blocking binding of HEK293-Blue IL-4 cells (to IL-4) (IC50) | Inhibiting IL-4-related proliferation of TF-1 cells (IC50) |
| --- | --- | --- |
| B2 | 0.000943 µg/mL | 0.0296 µg/mL |
| B7 | 0.000667 µg/mL | 0.491 µg/mL |
| B4 | 0.00687 µg/mL | 0.112 µg/mL |

Molecular target: T3, human IL-4R on cells (HEK-Blue IL-4 …)
Test: cell-based or functional assay
Remark: another data set of the same source

| Binder | Blocking binding of HEK293-Blue IL-4 cells (to IL-4) (IC50) | Inhibiting IL-4-related proliferation of TF-1 cells (IC50) |
| --- | --- | --- |
| B1 | 0.00202 µg/mL | 0.0203 µg/mL |
| B7 | 0.00324 µg/mL | 0.207 µg/mL |
| B3 | 0.00903 µg/mL | 0.0464 µg/mL |

What follows are binders tested against T4, humanized Fc-tagged human IL-4R recombinant protein (h-IL-4R-Fc) (human, UniProt P24394 26-232) (assay: blocking ELISA: human IL-4R-Fc coated, antibody blocks the binding of IL-4).
T4 construct: range 1-232; The printed range starts at Met1, so it includes the signal peptide of the construct; also called Human IL-4R-Fc; not shown: Fc tag
Description: (§1) Human IL-4R-Fc protein was coated on a 96-well microplate, 100 μL per well at a concentration of 0.5 μg/mL, and incubated overnight at 4° C. The plate was washed three times with washing buffer at 250 μL per well. A blocking solution was added at 200 μL per well and the plate was incubated at room temperature for 2 h. The plate was washed three times with washing buffer at 250 μL per well. Anti-IL-4R antibody to be tested diluted in diluent was added at 100 μL per well, and the plate was incubated at room temperature for 1 h. The plate was washed three times with washing buffer at 250 μL per well. […] HRP-labeled Neutravidin diluted in a diluent at 1:5000 was added, and the plate was incubated at room temperature for 1 h. The plate was washed three times with washing buffer at 250 μL per well. TMB was added at 100 μL per well, and the mixture was reacted for 15 min in the dark. 0.16 M/L sulfuric acid was added at 50 μL per well.

| Binder | IC50 |
| --- | --- |
| B5 | 0.00813 µg/mL |
| B1 | 0.0397 µg/mL |
| B2 | 0.0236 µg/mL |
| B3 | 0.162 µg/mL |
| B6 | 0.0299 µg/mL |
| B4 | 0.0753 µg/mL |

Molecular target: T3, human IL-4R on cells (HEK-Blue IL-4 …)
Test: cell-based or functional assay
Remark: another data set of the same source

| Binder | IC50 for blocking binding of HEK293-Blue IL-4 cells (to IL-4) | IC50 for inhibiting IL-4-related proliferation of TF-1 cells |
| --- | --- | --- |
| B5 | 0.000975 µg/mL | 0.0513 µg/mL |
| B7 | 0.00507 µg/mL | 0.102 µg/mL |
| B6 | 0.0798 µg/mL | 0.418 µg/mL |

Molecular target: T3, human IL-4R on cells (HEK-Blue IL-4 …)
Test: cell-based or functional assay
Remark: another data set of the same source

| Binder | Blocking binding of HEK293-Blue cells (to IL-4) (IC50) | Blocking binding of HEK293-Blue cells (to IL-13) (IC50) | Inhibiting IL-4-related proliferation of TF-1 cells (IC50) | Inhibiting IL-13-related proliferation of TF-1 cells (IC50) |
| --- | --- | --- | --- | --- |
| B8 | 0.00649 µg/mL | 0.01 µg/mL | 0.0837 µg/mL | 0.0132 µg/mL |
| B9 | 0.0066 µg/mL | 0.00838 µg/mL | 0.051 µg/mL | 0.0137 µg/mL |
| B7 | 0.0125 µg/mL | 0.0148 µg/mL | 0.101 µg/mL | 0.0181 µg/mL |

What follows are binders tested against T4, humanized Fc-tagged human IL-4R … (assay: blocking ELISA of human IL-4/IL-4R).
Description: as §1

| Binder | IC50 |
| --- | --- |
| B8 | 0.144 µg/mL |
| B9 | 0.108 µg/mL |

These binders were tested against T2, his-tagged human IL-4R recombinant … (assay: binding ELISA, human IL-4R-his coated).
Description: ELISA experiment was used to detect binding properties of anti-IL-4R antibodies. A microplate was coated with his-tagged IL-4R recombinant protein. After the antibody was added to each well, the activity of the binding of the antibody to the antigen was detected by adding a secondary antibody (HRP-conjugated anti-primary antibody Fc antibody) and HRP substrate TMB.
Human or rhesus IL-4R-his protein was coated on a 96-well microplate, 100 μL per well at a concentration of 0.5 μg/mL, and incubated overnight at 4° C. The plate was washed three times with washing buffer at 250 μL per well. A blocking solution was added at 200 μL per well and the plate was incubated at room temperature for 2 h. The plate was washed three times with washing buffer at 250 μL per well. Anti-IL-4R antibody to be tested diluted in diluent was added at 100 μL per well. The plate was incubated at room temperature for 1 h. The plate was washed three times with washing buffer at 250 μL per well. HRP-labeled goat anti-human IgG secondary antibody diluted at 1:20000 with diluent was added at 100 μL per well. The plate was incubated at room temperature for 1 h. The plate was washed three times with washing buffer at 250 μL per well. TMB was added at 100 μL per well, and the mixture was reacted for 15 min in the dark. 0.16 M/L sulfuric acid was added at 50 μL per well. The OD value was read at 450 nm by a Thermo MultiSkanFc microplate reader and the binding EC₅₀ value of the anti-IL-4R antibody to IL-4R was calculated.

| Binder | EC50 |
| --- | --- |
| B5 | 0.00332 µg/mL |
| B1 | 0.00909 µg/mL |
| B2 | 0.00341 µg/mL |
| B3 | 0.0118 µg/mL |
| B6 | 0.0458 µg/mL |
| B4 | 0.012 µg/mL |
